The values that follow come from patent US20130039923A1 (Novo Nordisk, published 2013).

In experiment [1] the target is T1, recombinant human interleukin-20 (human, UniProt Q9NYY1 25-176).
T1 sequence: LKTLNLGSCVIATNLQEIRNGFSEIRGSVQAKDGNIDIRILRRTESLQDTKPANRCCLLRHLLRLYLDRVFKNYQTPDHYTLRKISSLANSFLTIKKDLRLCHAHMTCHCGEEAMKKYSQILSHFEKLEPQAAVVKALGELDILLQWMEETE
Put plainly: cell-based or functional assay.

A further experiment has as its target T2, cynomolgus IL20 (cynomolgus monkey, UniProt Q9NYY1 25-176 (human entry)).
T2 chain: T1 sequence with N54D, R55Q, P77L, S119G, K127E
Briefly: cell-based or functional assay.

The target of another experiment is T3, murine IL20 (mouse, UniProt Q9JKV9 25-176).
T3 sequence: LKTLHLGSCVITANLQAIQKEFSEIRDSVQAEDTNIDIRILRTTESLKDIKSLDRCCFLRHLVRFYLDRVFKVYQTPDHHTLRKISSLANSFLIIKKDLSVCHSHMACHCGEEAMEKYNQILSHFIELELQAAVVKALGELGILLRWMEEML
Put plainly: cell-based or functional assay.

The target in experiment [2] is T4, hIL20 peptide 1 (residues 18-37 of SEQ ID NO: 1) (N-terminal biotin).
T4 peptide: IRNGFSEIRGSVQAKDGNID
Briefly: SPR, biotinylated peptide on streptavidin chip (500 RU), antibody injected. Background: SPR reads the build-up and loss of mass on a sensor chip optically.

The target of experiment [3] is T5, hIL20 peptide 2 (residues 28-47 of SEQ ID NO: 1) (N-terminal biotin).
T5 peptide: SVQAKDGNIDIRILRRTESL
The experiment is described as above.

Experiment [4] has as its target T6, hIL20 peptide 3 (residues 38-57 of SEQ ID NO. 1) (N-terminal biotin).
T6 peptide: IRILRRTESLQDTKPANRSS
Described as above.

Experiment [5] has as its target T7, hIL20 peptide 4 (residues 48-67 of SEQ ID NO. 1) (N-terminal biotin).
T7 peptide: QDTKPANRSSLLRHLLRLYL
Described as above.

In experiment [6] the target is T8, hIL20 peptide 5 (residues 58-78 of SEQ ID NO: 1) (N-terminal biotin).
T8 peptide: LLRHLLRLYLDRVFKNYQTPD
The description is as above.

Experiment [7] concerns the target T9, Peptide no. 3 (Figures 7A, 7B) (N-terminus acylated).
T9 construct: peptide array on cellulose
T9 peptide: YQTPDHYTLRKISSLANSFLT
Briefly: array of terminally truncated, acylated hIL20 peptides on cellulose; fluorescein-labelled antibody; fluorescence as OD.

The target in experiment [8] is T10, Peptide no. 7 (Figures 7A, 7B) (also: N-terminus acylated).
T10 construct: peptide array on cellulose
T10 peptide: YQTPDHYTLRKISSLAN
The description is as above.

Experiment [9] concerns the target T11, Peptide no. 13 (Figures 7A, 7B) (N-terminus acylated).
T11 construct: peptide array on cellulose
T11 peptide: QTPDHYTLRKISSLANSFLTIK
Described as above.

The target in experiment [10] is T12, Peptide no. 17 (Figures 7A, 7B) (also: N-terminus acylated).
T12 construct: peptide array on cellulose
T12 peptide: HYTLRKISSLANSFLTIK
The experiment is described as above.

Where a chain is given by its changes, count along the chain named. Ends that are not written are not given here.

B1: human anti-hIL20 monoclonal antibody 15D2 (antibody, V domains shown)
VH: QVQLVQSGAEVKRPGASVKVSCKASGYTFTNDIIHWVRQAPGQRLEWMGWINAGYGNTQYSQNFQDRVSITRDTSASTAYMELISLRSEDTAVYYCAREPLWFGESSPHDYYGMDVWGQGTTVTVSS
VL: AIQLTQSPSSLSASVGDRVTITCRASQGISSALAWYQQKPGKAPKLLIYDASSLESGVPSRFSGSGSGTDFTLTISSLQPEDFATYYCQQFNSYPLTFGGGTKVEIKR
notes: also called 15D2-wt; 15D2 wild-type
For B1, the “efficacy (percentage inhibition) of IL20-induced proliferation of BaF-3(hIL20R)” value (in experiment [1]; with cynomolgus IL20; in the experiment with murine IL20) was approximately 100% throughout. For the same molecule, the binding result in [2], in experiment [3], in [4], in experiment [5] and in [6] was “no binding (tested: 5 µg/ml)” each time.

B2: human anti-hIL20 monoclonal antibody 5B7 (antibody, human IgG4, V domains shown)
VH: B1 VH with T30S, N31S, D32H, I34M, Q59K, S69T, S106L
VL: B1 VL
notes: described as human IgG4; also called 5B7-wt
For the molecule B2, the binding result in [7], in [8], in experiment [9] and in experiment [10] was “binds” in each case.
